Assay results reported in the DeepSol protein solubility set.

Assay: soluble on expression in E. coli; label from the status in PepcDB or PDB records

Row | Sequence | soluble on expression in E. coli
1 | MWLWRKLWGIGGTMSRNTEATDDVKTWTGGPLNYKEGFFTQLATDELAKGINEEVVRAISAKRNEPEWMLEFRLNAYHAWLEMEEPHWLKAHYDKLNYQDYSYYSAPSCGNCDDNCASEPGAVQQTGANAFLSKEVEAAFEQLGVPVREGKEVAVDAIFDSVSVATTYREKLAEQGIIFCSFGEAIHDHPELVRKYLGTVVPGNDNFFAALNAAVASDGTFIYVPKGVRCPMELSTYFRINAEKTGQFERTILVADEDSYVSYIEGCSAPVRDSYQLHAAVVEVIIHKNAEVKYSTVQNWFPGDNNTGGILNFVTKRALCEGENSKMSWTQSETGSAITWKYPSCILRGDNSIGEFYSVALTSGHQQADTGTKMIHIGKNTKSTIISKGISAGHSQNSYRGLVKIMPTATNARNFTQCDSMLIGANCGAHTFPYVECRNNSAQLEHEATTSRIGEDQLFYCLQRGISEEDAISMIVNGFCKDVFSELPLEFAVEAQKLLAISLEHSVG | soluble
2 | MWNMLIVAMCLALLGCLQAQELQGHVSIILLGATGDLAKKYLWQGLFQLYLDEAGRGHSFSFHGAALTAPKQGQELMAKALESLSCPKDMAPSHCAEHKDQFLQLSQYRQLKTAEDYQALNKDIEAQLQHAGLREAGRIFYFSVPPFAYEDIARNINSSCRPGPGAWLRVVLEKPFGHDHFSAQQLATELGTFFQEEEMYRVDHYLGKQAVAQILPFRDQNRKALDGLWNRHHVERVEIIMKETVDAEGRTSFYEEYGVIRDVLQNHLTEVLTLVAMELPHNVSSAEAVLRHKLQVFQALRGLQRGSAVVGQYQSYSEQVRRELQKPDSFHSLTPTFAGVLVHIDNLRWEGVPFILMSGKALDERVGYARILFKNQACCVQSEKHWAAAQSQCLPRQLVFHIGHGDLGSPAVLVSRNLFRPSLPSSWKEMEGPPGLRLFGSPLSDYYAYSPVRERDAHSVLLSHIFHGRKNFFITTENLLASWNFWTPLLESLAHKAPRLYPGGAENGRLLDFEFSSGRLFFSQQQPEQLVPGPGPAPMPSDFQVLRAKYRESPLVSAWSEELISKLANDIEATAVRAVRRFGQFHLALSGGSSPVALFQQLATAHYGFPWAHTHLWLVDERCVPLSDPESNFQGLQAHLLQHVRIPYYNIHPMPVHLQQRLCAEEDQGAQIYAREISALVANSSFDLVLLGMGADGHTASLFPQSPTGLDGEQLVVLTTSPSQPHRRMSLSLPLINRAKKVAVLVMGRMKREITTLVSRVGHEPKKWPISGVLPHSGQLVWYMDYDAFLG | soluble
3 | MWPLALVIASLTLALSGGVSQESSKVLNTNGTSGFLPGGYTCFPHSQPWQAALLVQGRLLCGGVLVHPKWVLTAAHCLKEGLKVYLGKHALGRVEAGEQVREVVHSIPHPEYRRSPTHLNHDHDIMLLELQSPVQLTGYIQTLPLSHNNRLTPGTTCRVSGWGTTTSPQVNYPKTLQCANIQLRSDEECRQVYPGKITDNMLCAGTKEGGKDSCEGDSGGPLVCNRTLYGIVSWGDFPCGQPDRPGVYTRVSRYVLWIRETIRKYETQQQKWLKGPQ | soluble
4 | MWPTHDLPILSNKSLILRKLQIEDTPRLVELAQDPAMRNFTTIPSPFTVENALEFISSSSVPTDSLVRWAIATADKPSIYLGTIELRAQSPICVDIGYSLHPHARGLGIMPKAVRLVSNYALSVGFHRVEIKIRTSNVASRRATERARATFEGIAHKAELHRGSIYDLAIYSITS | not soluble
5 | MWSEYSLEVVDAVARNGSFSAAAQELHRVPSAVSYTVRQLEEWLAVPLFERRHRDVELTPAGVWFLQEGRSVIKKMQITRQQCQQIANGWRGQLSIAVDDIVKPARMRQMIVDFYRHFPDVELIVFQEVFNGVWDALADGRVELAIGATRSIPVGGRYAFRDMGMLSWDCVVASDHPLAKMEGPLSDDVLRNWPSLVREDTSRSLPKRTTWLLDNQKRVVVPDWESSATCLSAGLCVGMVPSHFARPWIDRGEWTALALENPFPDAACCLTWQQNDASPALNWMLDYLGDSDTLNREWLRAPERSAPARCLNDDNRQTGHPLPSGAQPDGGALR | not soluble
6 | MWVEKKKDKKGNITYQYRERYTDPRTGKTQKVTTTLAKNTKQAENAARRELEIKIQKILTDYEEEKRLENLIKNEGVIPNDKTLEDMIKEWFDYIQDPKSKERKKGSTLSGYSYGIDSLLNEFLVIEKDKRIQDLTFDDIQAFYDRMIFDFEYQKSYIKRFRAIIRGAFTLAYKKRYIKNLDAINLSKIVTPAKTVDDLINEQVPRYLEKAEAEQIFQVLNGYNPLYTQILELQFHTGMRFGELIALESKNFHDGFLLDIHGTYDHATRSHTRGQKVPPKTRKSFRTIELGDAAVQIIKDRMYHNHFIKNKNSDFLFVTSNDRPYDLGTINSFIASHQIEFNTSTKVSTHVFRHTHISMLAEKSIPIQVIMDRVGHEDRETTEKIYMHVTKKQKTDLVKTLNEL | not soluble
7 | MYALFLLASLLGAALAGPVLGLKECTRGSAVWCQNVKTASDCGAVKHCLQTVWNKPTVKSLPCDICKDVVTAAGDMLKDNATEEEILVYLEKTCDWLPKPNMSASCKEIVDSYLPVILDIIKGEMSRPGEVCSALNLCESLQKHLAELNHQKQLESNKIPELDMTEVVAPFMANIPLLLYPQDGPRSKPQPKDNGDVCQDCIQMVTDIQTAVRTNSTFVQALVEHVKEECDRLGPGMADICKNYISQYSEIAIQMMMHMQPKEICALVGFCDEVKEMPMQTLVPAKVASKNVIPALELVEPIKKHEVPAKSDVYCEVCEFLVKEVTKLIDNNKTEKEILDAFDKMCSKLPKSLSEECQEVVDTYGSSILSILLEEVSPELVCSMLHLCSGTRLPALTVHVTQPKDGGFCEVCKKLVGYLDRNLEKNSTKQEILAALEKGCSFLPDPYQKQCDQFVAEYEPVLIEILVEVMDPSFVCLKIGACPSAHKPLLGTEKCIWGPSYWCQNTETAAQCNAVEHCKRHVWN | soluble
8 | MYDTVRDRLIHLHHCRGAGWKTIHSLLKVDPTLTAPFSLPPNDLRPLVPLSDAQWTAFFHDLHSIDVQRVIKTYKGRCIRVITVFDSDYPPLLKYIYAPPWVLYAKGDSALLQEWKLISIVGTRRPTKEGIEALNKLVPPLVAAGFTIVSGLAFGIDVCAHQLAVQHGGSTIAVIAGGLDHIYPKEHRPFATLLMNEQLVIAEHPPATRPQAWQFPARNRIISGLSLGTLVVQAKRKSGSLITAAYALEQGREVFAVPGPIGLAESAGPNTLIQHGAKLVQEAADILDEFPYV | not soluble
9 | MYDYSILPNRIILCVDLRSFYASVSCIKMGLDPMHTKLAVVGDVNRNGSIVLAATPPLKALGVKKMARLYEIPRRKDILVVNPIMSTYIKCSNYITKLALQYVPIEDFHQYSIDEFFMDITDSIHLFAQDPYEFAMKFKREIYDHTRIECTIGIAPNPLMSKVALDIEAKKNKDGIAFWQYEDIPTKLWSIRPLNKFWGISYKTEEKLNRKGIYSIGDLANYPLKYLKQSFGKIGEELHLHSHGIDFSRISEKYVPATTSIGKSQILMRDYTIEEFPIILLEHIEEVCYRLRRQTKLAQTIHFSVGYSKSYTGGIRKTHTLNRPTNLTMDIYHICTYFLHQQYTGEPIRSINISLTNLIQEGEEQISLFDNVTKREQEMKLTKVMDEIRTKFGKNSILRGISYTHSATARHRNTLIGLEHHHHHH | not soluble
10 | MYEPLHRDAEQKDTAPHDPISILLLGIDERPGDKGRPDSMIVMTVNPKTKKTTMTSIPRDTRVFIKSKNKFSKMNSAYTYGGIEGTVETVEQFLNIPINYYIKINMDGFKDIVDAIGGVTVDNRIDFTLEGVHLSKGKQHLDGKTALTYARMRKDDPRGDFGRQERQREIINEIIHEGAQLKSLTNYQEILAALEKNIKTNLTLDKMIDIQSSYKEAAKDIKQVEIEGEDKKVDSLWYHLVTDEKRMEISKKLRQQLDLKSLEHHHHHH | soluble
11 | MYEQQQHFMDLQSDSGFGDDSSWLAGDDDLRLSPHQSAAGTNSGNENLDRRLLKDLVEMVPLIEHYMEHKERSSFKRRGSMIYTKMPSKESLSRRGRNASQTVPGRKKRDQEGNDDVMNNSREDDENAKALAGAEKEEMSRLREQVNDLQTKLSEKEEVLKSMEMSKNQVNEIQEKLEATNRLVAEKDMLIKSMQLQLSDTKIKLADKQAALEKTQWEAKTTGTRAIKLQEQLDAVEGDISTFTRVFETLAKTDSKKPDRDYDAVPYEFDHLPYLDDVDETDLRKMEEARLAYVAAVNTAKEREDEESLVMAAQARAYLQSLAFTY | soluble
12 | MYGKLLICATASINVININHYIVELKQHFDEVNILFSPSSKNFINTDVLKLFCDNLYDEIKDPLLNHINIVENHEYILVLPASANTINKIANGICDNLLTTVCLTGYQKLFIFPNMNIRMWGNPFLQKNIDLLKNNDVKVYSPDMNKSFEISSGRYKNNITMPNIENVLNFVLNNEKRPLD | soluble
13 | MYKILEIADVVKVPPEEFGKDLKETVKKILMEKYEGRLDKDVGFVLSIVDVKDIGEGKVVHGDGSAYHPVVFETLVYIPEMYELIEGEVVDVVEFGSFVRLGPLDGLIHVSQIMDDYVSYDPKREAIIGKETGKVLEIGDYVRARIVAISLKAERKRGSKIALTMRQPYLGKLEWIEEEKAKKQNQE | soluble
14 | MYKPITFSLKYIFKTAGKVEVQGREKLPEGGPYVVACTHTSFMDVLMLATGMYPTEIHYMAKKELFEGKFKNWFFKNVNAFPVDRANPGPSTLKIPSRLLKEGKVVGIFPSGTRSTEDVSLKAGAVTIAMRSNVPLIPAAYIGPSSVKELIKGKRAQLIFGDPIQIDAEEQIDRKTAMKMMTDQLNEKFEGLKEALQSNQK | not soluble
15 | MYLMSSIPPLIDLLPHDTPLALVDELIEVNDLSVHCQVTIGENNVFFDHETKTVPAWVGIEFMAQSIAGWSGYHAWKKGNKSPIGFLLGSRKYQAECSEFQQGDTLDIFAEQVLENNGMAVFSCYIEHKGQQLASSQLNVFVPTEEKLEELLTPKQLEHHHHHH | soluble
16 | MYLTKEEELALSGEYGPAIQKAMEILVALGDIYNADRLIPIKSAQIAGVSYKNIGDEGIEFLRDFVEAGAKVSVYTTLNPAGIGDEDFMEKQAEIIELYRKMGVEITSTCTPYYGPNLPKYGDHLAWSESSAVIFANSVLGARTNREGGPSSLAAAIVGKTPNYGLHLEENRKATHIIEVKDKLKSRTEYSLLGYKIGEIVENGVPYIRGIAPTTEDLKALGASMAASGGVGLYHVEGSTPEWRGAIVDKIEKIEIGRKDLEDVRQRFSVDWGDVDIILLGCPHASLREIKEIAELLRMRDKPLKIPLFITVSRGIKALADYLGYTEIIERYNGKLLPDVCLVVSPIKEWYSGVATDSGKAAFYLKSFGLKVLLDTTENIIMGAPLEHHHHHH | not soluble
17 | MYNDDELTEFMDFLVEQTKDSIYPMVAAKVFKQFPNRRLIPKDKRYQRFVLQLAPKMNDWNNYSIEARIRLMYALRGKVEDDFLARIEAHGTVQLNEKQRISKFTANDGTFFLEDDRKRLSLDATRLEFVKLMGFLIEKTKDAVEPLPNTKLIFQEFSQIEPVKKPNDTDIMYKFRSSLAPYMDKWNDYSIEDRVRLMFALGGKIKDGFLRTIETHGTLQLDDKRRITKYVSNDGNFKLEGIRRNVHKKEATGPEYTRFMDFLIKTTKEAVEPMRVWLVHNEFKRQEGRKFSKSGYAKRFHKKLAPNMSKWTNYKIEERTRMMFAMKGKVESDFLAQIEESGKVQLDENHLIVKYTSKNRKIKLGGETRLVEKKKRKSTNYHKMHQKRRKIIRSVTDETSLVAKWKRKSDSYYEMYQKRRKIGEKELSDTAEVEEVAPYDSDYGNVYVENLEAEDQDTQLNPFNAMSDLTTDGPSSNAHDLTMWPNDDPKQEPVFENIFIQNQYFPPEIEEVPNQGVYHVEPETKLSYINTNPGSSVTESGGIKLHKFLNLLELILTSLESDTLDDLLNDIEGIRVRINDEILPPELVITALQTFLLGITRKSRSAASAENKSSHECLRIFKYSLPWLRSPLLWELQQRVEEEIESHVIGGKIILVADVQQGIRNILFAVSN | not soluble
18 | MYNDVLFPGEDINKPISIAAANRFVNRIRGGMDLGYWRTHDFRRTLVTRLSEMNVEPHVTERMLGHELGGIMSVYNKHDWIEAQRKAYELHADKLFWHIRSISD | not soluble
